B1: RNA polymerase sigma factor RpoD (Pseudomonas aeruginosa (strain ATCC 15692 / PAO1 / 1C / PRS 101 / LMG 12228)), P26480 (parent)
chain: MSGKAQQQSRLKELIARGREQGYLTYAEVNDHLPEDISDPEQVEDIIRMINDMGINVFETAPDADALLLAEADTDEAAAEEAAAALAAVESDIGRTTDPVRMYMREMGTVELLTREGEIEIAKRIEEGIREVMSAIAQFPGTVDSILADYNRIVAEGGRLSDVLSGYIDPDDGSLPAEEVEPVNLKDDSADSKEKDDEEEESDDSSDSDDEGDGGPDPEEARLRFTAVSEQLDKAKKALKKHGRGSKQATAELTGLAELFMPIKLVPKQFDALVARVRSALEGVRAQERAIMQLCVRDARMPRADFLRLFPNHETDEKWVDSVLKSKPKYAEAIERLRDDILRNQQKLAALESEVELTVAEIKEINRAMSIGEAKARRAKKEMVEANLRLVISIAKKYTNRGLQFLDLIQEGNIGLMKAVDKFEYRRGYKFSTYATWWIRQAITRSIADQARTIRIPVHMIETINKLNRISRQMLQEMGREPTPEELGERMDMPEDKIRKVLKIAKEPISMETPIGDDEDSHLGDFIEDSTMQSPIEMATSESLKESTREVLAGLTAREAKVLRMRFGIDMNTDHTLEEVGKQFDVTRERIRQIEAKALRKLRHPSRSEHLRSFLDE
partner: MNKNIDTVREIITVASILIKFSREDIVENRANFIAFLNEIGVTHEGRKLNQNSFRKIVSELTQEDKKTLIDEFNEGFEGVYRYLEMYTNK
B2: RNA polymerase sigma factor RpoD (Pseudomonas aeruginosa (strain ATCC 15692 / PAO1 / 1C / PRS 101 / LMG 12228)), P26480 (parent)
chain: B1 chain
partner: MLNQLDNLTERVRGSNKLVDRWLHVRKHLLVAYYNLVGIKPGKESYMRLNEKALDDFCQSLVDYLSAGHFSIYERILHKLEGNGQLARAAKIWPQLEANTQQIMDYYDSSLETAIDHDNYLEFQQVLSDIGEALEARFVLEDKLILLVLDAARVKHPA
B3: RNA polymerase sigma factor RpoD (Pseudomonas aeruginosa (strain ATCC 15692 / PAO1 / 1C / PRS 101 / LMG 12228)), P26480 (parent)
chain: B1 chain
partner: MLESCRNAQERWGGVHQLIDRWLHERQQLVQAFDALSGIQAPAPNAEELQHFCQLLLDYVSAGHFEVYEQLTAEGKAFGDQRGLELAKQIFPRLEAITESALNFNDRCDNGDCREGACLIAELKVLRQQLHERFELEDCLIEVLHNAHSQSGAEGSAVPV

Variants of: B1
Conditions: with asia_bpt4 asiA

Row | Variant | effect of a mutation on the interaction
1 | R600H | decreasing interaction

Variants of: B2
Conditions: with rsd_ecoli rsd

Row | Variant | effect of a mutation on the interaction
2 | R600H | decreasing interaction

Variants of: B3
Conditions: with algq_pseae algQ

Row | Variant | effect of a mutation on the interaction
3 | R600H | decreasing interaction
